Data from patent publication US20190010242A1 (INHIBRX, published 2019).

Tests used:
B7H3 on A375 cells = biological target: T1, B7H3 on A375 cells (UniProt Q5ZPR3 29-534, limits assumed); test: flow cytometry on A375 cells
T1 construct: whole, on cells; also called BH73
T1 sequence (looked up): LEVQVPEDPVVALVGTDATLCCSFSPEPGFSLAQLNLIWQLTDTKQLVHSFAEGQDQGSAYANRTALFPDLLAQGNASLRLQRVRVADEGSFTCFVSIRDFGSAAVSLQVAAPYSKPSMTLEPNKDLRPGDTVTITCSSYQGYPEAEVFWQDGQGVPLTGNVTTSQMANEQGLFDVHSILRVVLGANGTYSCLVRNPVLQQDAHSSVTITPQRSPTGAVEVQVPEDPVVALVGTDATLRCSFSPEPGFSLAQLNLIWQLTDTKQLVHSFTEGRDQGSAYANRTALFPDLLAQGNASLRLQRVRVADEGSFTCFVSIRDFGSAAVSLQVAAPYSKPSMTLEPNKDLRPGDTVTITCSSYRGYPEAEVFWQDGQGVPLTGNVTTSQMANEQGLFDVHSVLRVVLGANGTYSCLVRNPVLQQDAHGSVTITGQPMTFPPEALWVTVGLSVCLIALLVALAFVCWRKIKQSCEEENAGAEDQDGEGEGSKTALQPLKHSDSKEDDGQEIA

[1] = biological target: T2, CD3 on the surface of primary human T cells (human, UniProt P07766 23-207); test: flow cytometry on primary human T cells
T2 construct: whole, on cells; CD3 is a multi-chain complex; also called CD3ε
T2 sequence (P07766 23-207): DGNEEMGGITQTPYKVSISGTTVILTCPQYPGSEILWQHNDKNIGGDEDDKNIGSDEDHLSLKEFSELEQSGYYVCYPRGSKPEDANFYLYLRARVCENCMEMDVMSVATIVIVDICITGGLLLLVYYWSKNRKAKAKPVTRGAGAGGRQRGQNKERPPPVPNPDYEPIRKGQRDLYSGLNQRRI

[2] = biological target: T2, CD3 on the surface of primary human T …; test: flow cytometry on primary human T cells (FIGS. 14C and 14D)

B1: Dual-affinity Re-targeting Antibody (DART)-monomeric Fc format targeting B7H3 and CD3 (bispecific antibody)
chain 1: DIQLTQSPSFLSASVGDRVTITCKASQNVDTNVAWYQQKPGKAPKALIYSASYRYSGVPSRFSGSGSGTDFTLTISSLQPEDFATYYCQQYNNYPFTFGQGTKLEIKGGGSGGGGEVQLVESGGGLVQPGGSLRLSCAASGFTFSTYAMNWVRQAPGKGLEWVGRIRSKYNNYATYYADSVKDRFTISRDDSKNSLYLQMNSLKTEDTAVYYCVRHGNFGNSYVSWFAYWGQGTLVTVSSGGCGGGEVAALEKEVAALEKEVAALEKEVAALEKGGGDKTHTCPPCPAPEAAGGPSVFLFPPKPKDTLMISRTPEVTCVVVDVSHEDPEVKFNWYVDGVEVHNAKTKPREEQYNSTYRVVSVLTVLHQDWLNGKEYKCKVSNKALPAPIEKTISKAKGQPREPQVYTLPPSREEMTKNQVSLWCLVKGFYPSDIAVEWESNGQPENNYKTTPPVLDSDGSFFLYSKLTVDKSRWQQGNVFSCSVMHEALHNHYTQKSLSLSPGK
chain 2: QAVVTQEPSLTVSPGGTVTLTCRSSTGAVTTSNYANWVQQKPGQAPRGLIGGTNKRAPWTPARFSGSLLGGKAALTITGAQAEDEADYYCALWYSNLWVFGGGTKLTVLGGGGSGGGGEVQLVESGGGLVQPGGSLRLSCAASGFTFSSFGMHWVRQAPGKGLEWVAYISSDSSAIYYADTVKGRFTISRDNAKNSLYLQMNSLRDEDTAVYYCGRGRENIYYGSRLDYWGQGTTVTVSSGGCGGGKVAALKEKVAALKEKVAALKEKVAALKE
chain 3: not shown
notes: also called DART-Fc B7H3×CD3; DART-Fc
B1: binds (B7H3 on A375 cells); binds [1].

B2: cx3309 (CD20-targeting constrained CD3 engaging construct, GA101 scFvs) (bispecific antibody)
chain 1: not shown
chain 2: DKTHTCPPCPAPELLGGPSVFLFPPKPKDTLMISRTPEVTCVVVDVSHEDPEVKFNWYVDGVEVHNAKTKPREEQYNSTYRVVSVLTVLHQDWLNGKEYKCKVSNKALPAPIEKTISKAKGQPREPQVYTLPPCRDELTKNQVSLWCLVKGFYPSDIAVEWESNGQPENNYKTTPPVLDSDGSFFLYSKLTVDKSRWQQGNVFSCSVMHEALHNHYTQKSLSLSPTGGSGGGGIEPDIGGSGGSEVQLVESGGGLVQPGGSLRLSCAASGFTFNTYAMNWVRQAPGKCLEWVARIRSKYNNYATYYADSVKGRFTISRDDAKNTLYLQMSSLRAEDTAVYYCVRHGNFGNSYVSWFAYWGQGTLVTVKP
scFv: QVQLVQSGAEVKKPGSSVKVSCKASGYAFSYSWINWVRQAPGQGLEWMGRIFPGDGDTDYNGKFKGRVTITADKSTSTAYMELSSLRSEDTAVYYCARNVFDGYWLVYWGQGTLVTVSGSGGGGSGGGGTGGGGSDIVMTQTPLSLPVTPGEPASISCRSSKSLLHSNGITYLYWYLQKPGQSPQLLIYQMSNLVSGVPDRFSGSGSGTDFTLKISRVEAEDVGVYYCAQNLELPYTFGGGTKVEIK
notes: also called cx3490
B2: no binding (tested: 100 nM) [1].

B3: cx3314 (B7H3-targeting constrained CD3 engager, B7H3 scFv) (bispecific antibody)
chain 1: not shown
chain 2: B2 chain 2
scFv: EVQLVESGGGLVQPGGSLRLSCAASGFTFSSFGMHWVRQAPGKGLEWVAYISSDSSAIYYADTVKGRFTISRDNAKNSLYLQMNSLRDEDTAVYYCGRGRENIYYGSRLDYWGQGTTVTVSSSGGGGSGGGGSGGGGSDIQLTQSPSFLSASVGDRVTITCKASQNVDTNVAWYQQKPGKAPKALIYSASYRYSGVPSRFSGSGSGTDFTLTISSLQPEDFATYYCQQYNNYPFTFGQGTKLEIK
notes: also called cx3314 scFv
B3: no binding [2].

B4: cx3313 (B7H3-targeting constrained CD3 engager, B7H3 Fab) (bispecific antibody)
chain 1: not shown
chain 2: B2 chain 2
heavy: EVQLVESGGGLVQPGGSLRLSCAASGFTFSSFGMHWVRQAPGKGLEWVAYISSDSSAIYYADTVKGRFTISRDNAKNSLYLQMNSLRDEDTAVYYCGRGRENIYYGSRLDYWGQGTTVTVSSASTKGPSVFPLAPSSKSTSGGTAALGCLVKDYFPEPVTVSWNSGALTSGVHTFPAVLQSSGLYSLSSVVTVPSSSLGTQTYICNVNHKPSNTKVDKKVEPKSC
light: DIQLTQSPSFLSASVGDRVTITCKASQNVDTNVAWYQQKPGKAPKALIYSASYRYSGVPSRFSGSGSGTDFTLTISSLQPEDFATYYCQQYNNYPFTFGQGTKLEIKRTVAAPSVFIFPPSDEQLKSGTASVVCLLNNFYPREAKVQWKVDNALQSGNSQESVTEQDSKDSTYSLSSTLTLSKADYEKHKVYACEVTHQGLSSPVTKSFNRGEC
notes: also called cx3313 FAB
B4: no binding [2].
